Assay results reported in the nanobody polyreactivity screen of Harvey et al. (2022).

Assay: yeast display, Sf9 membrane polyspecificity reagent, FACS + sequencing; frameworks hold sequencing errors
In short: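 After 36–48 hours of galactose induction, yeast (Saccharomyces cerevisiae BJ5465) displaying a synthetic nanobody library were stained at 4 °C for 1 hour with 10% biotinylated, detergent-solubilized Sf9 membrane reagent. Streptavidin microbeads enriched the stained cells before FACS sorting into low and high (top ~1%) gates on anti-HA and streptavidin fluorescence. Each clone's polyreactivity label reflects its gate of origin.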

Row | Sequence | polyreactivity (PSR sort gate)
1 | QVQLVESGGGLVQAGGSLRLSCAASGRTFRGYAMGWYRPAPGKERELVAVISRGGRTNYADSVKGRFTISRDNAKNTVYLQMNSLKPEDTAVSYCAAEVAFIYSLRYDYWGQGTQVTVSS | high polyreactivity
2 | QVQLVESGGGLVQAGGSLRLSCAASGRTFRGYAMGWYRQAPGKERELGAAITSSGGRTYYADSVKGRFTISRDNAKNTVYLQMNSLKPVDTAVYYCAKDYYSPRGYDYWGQGTQVTVSS | high polyreactivity
3 | QVQLVESGGGLVQAGGSLRLSCAASGRTFRGYAMGWYRQAPGKERELVAGIRRGGSTNYADSVKGRFTISRDNSKNTVSLQMNSLKPEDTAVYYCAKTYTVSQPSLRTYYYWGQGTQVTVSS | high polyreactivity
4 | QVQLVESGGGLVQAGGSLRLSCAASGRTFRINAMGWYRQAPGKERELVAAISFRTDSTYYADSVKGRFTISRDNAKNTVYLQMNSLKPEDTAVYYCDARGLQVRTYDYWGQGTQVTVSS | high polyreactivity
5 | QVQLVESGGGLVQAGGSLRLSCAASGRTFRKNAMGWSRQAPGKDRELVAAISASGTSTYYADSVKGRFTISRDNAKNTVYLQLNSLKPEDTAVYYSAARSYGIYDYWGQGTQVTVSS | high polyreactivity
6 | QVQLVESGGGLVQAGGSLRLSCAASGRTFRKYGMGWYRPAPGTERELVAAITRSGGSTYYADSVKGRFTISRDNAKNTVYLQMNCLKPEDTSVYYCARSPVVVGSFLSYDYLGQGTQVTVSS | high polyreactivity
7 | QVQLVESGGGLVQAGGSLRLSCAASGRTFRLNAMGWYRQAPGKERELVAGIRVRAGTTYYADSVKGRFTISRDNAKNTVYLQRNSLKPEDTAVYYCAAESYSRSRKYDYWGQGTQVTVSS | high polyreactivity
8 | QVQLVESGGGLVQAGGSLRLSCAASGRTFRLNGMGWYRQAPGKERELVAAITWSGGRTDYADSVKGRFTISRDNAKNTVYLQMNSLKPEDTAVYYCAAGKSSYGKPKYYYWGQGTQVTVSS | high polyreactivity
9 | QVQLVESGGGLVQAGGSLRLSCAASGRTFRLNVMGWYRQAPGKERELVATISWSGGTTYYADSVKGRFTISRDNAKNTVYFQMNCLKPEDTAVYYCNRQVTWYPTGGYWGQGTQVTVSS | low polyreactivity
10 | QVQLVESGGGLVQAGGSLRLSCAASGRTFRLYAMGWYRDATGKERELFAAISRRGTSTHYADSVKGRFTISRDNAKNTVYLQMNSLKPEDTAVYYCAVDSNTYSFYGTHDDWGQGTQVTVSS | high polyreactivity
11 | QVQLVESGGGLVQAGGSLRLSCAASGRTFRLYAMGWYRQAPGKERELVAAISWRGGRTYYADSVKGRFTISRDNAKNTVYLQMNSLKPEDTAVYYCAAEDGYGQYDYWGQGTQVTVSS | high polyreactivity
12 | QVQLVESGGGLVQAGGSLRLSCAASGRTFRLYAMGWYRQAPGKERELVATITSSGGSTYYADSVKGRFTISRDKAKNTVYLQMNSLKPEDTAVYYCAAQTYYSYDYWGQGTQVTVSS | low polyreactivity
13 | QVQLVESGGGLVQAGGSLRLSCAASGRTFRNNAMGWYRQAPGKERELVAAISRTGGRTYYADSVKGRFTISRDNAKNTVYLQMNSLKPEDTAVYYCNAAYLVREYDYWGQGTQVTVSS | high polyreactivity
14 | QVQLVESGGGLVQAGGSLRLSCAASGRTFRNYAMGWYRQAPGKERELVAAISRSGGITYYADSVKGRFTISRDNSKNTVYLQMNSLKPEDTAVYYCAARHTYQGPGTYPMFYWGQGTQVTVSS | high polyreactivity
15 | QVQLVESGGGLVQAGGSLRLSCAASGRTFRPYAMGWDRQAPGKEREFVAAIRSSGDSTYYADSVKGRFTISRDNAKNTVYLQMNSLKPEDTAVYYCAADVYRYRVRGMNYWGQGTQVTVSS | high polyreactivity
16 | QVQLVESGGGLVQAGGSLRLSCAASGRTFRPYAMGWYRQAPGKERELVAAIDSSGTSTYYADSVKGRFTISRDNAKNTVYLQMYSLKPEDTAVYYCAKAWPDHWYSRYDYWGQGTQVTVSS | low polyreactivity
17 | QVQLVESGGGLVQAGGSLRLSCAASGRTFRPYAMGWYRQAPGKERELVAAITSCGSTYYADSVKGRFTISRDNAKNTVYLQMNSLKPEDTAVYYCNAKYYYQPPYDYWGQGTQVTVSS | low polyreactivity
